From patent US20110033543A1 (UNIVERSITY OF DELAWARE, published 2011)
Ends that are not written are not given here.

What was measured:
[1] = target: the molecule itself; experiment: circular dichroism, concentration dependence of MRE at 222 nm in PBS, fit for the Kd of the dimerization; isolated PF4ZIP, not conjugated to PEG
Description: Samples were equilibrated at the desired temperature for 30 minutes prior to data collection; equilibration was indicated by the absence of further changes in the CD signal at longer equilibration times. All CD spectra were taken in a 1 mm path length quartz cuvette, at wavelengths from 200 to 250 nm. Data points were recorded at every nanometer with a 4.0 s response time. The concentrations of peptide samples were determined via amino acid analysis for calculation of mean residue ellipticities.
The conformation of PF₄ZIP at various concentrations was also monitored via CD. […] The difference between the measured ellipticity and the ellipticity of the unfolded monomer is related to concentration and can be fit to determine the Kd of the dimerization, via standard fitting procedures well-described in the literature.

[2] = target: T1, streptavidin (SA chip) (UniProt P22629 37-163, limits assumed); experiment: SPR, Biacore 3000, streptavidin-coated chip
T1 construct: Chip surface of the SPR experiments; also called SA chips; streptavidin-coated chip
T1 sequence (P22629 37-163 limits assumed): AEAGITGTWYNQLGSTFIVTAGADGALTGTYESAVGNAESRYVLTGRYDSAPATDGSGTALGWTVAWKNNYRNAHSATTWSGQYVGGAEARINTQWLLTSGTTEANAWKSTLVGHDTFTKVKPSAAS
Description: Surface Plasmon Resonance (SPR). SPR sensorgrams were recorded on a BiaCore 3000 instrument (Biacore Inc, Piscataway, N.J.), employing a high-capacity LMWH surface created on a commercially available streptavidin-coated chip via treatment with biotinylated LMWH.
In SPR experiments, the interaction of the peptides with a LMWH-modified SA chip surface was determined under conditions described in the experimental section.

CGGRMKQLEDKVKKLLKKNYHLENEVARLKKLVG-NH2 (also: coiled-coil dimer, also called coiled-coil PF4ZIP) [PF4ZIP]
Kd [1]: 3.48 µM | binding result [2]: no binding
